Results reported in PMC5441900.

Assays:
[1] = molecular target: VI (vacuolar invertase) extracted from mature soybean leaves (Glycine max (endogenous in mature leaves))
[2] = molecular target: CWI (cell wall invertase) extracted from mature soybean leaves (Glycine max (endogenous in mature leaves))

inhibition of VI activity (glucose released from sucrose) of a leaf soluble fraction after 30 min at 37 °C with recombinant GmCIF1; maximum at about 50 ng, no further effect at 100 ng and 1000 ng [1] [%]	inhibition of CWI activity (glucose released from sucrose) of a leaf cell-wall preparation after 30 min at 37 °C with recombinant GmC/VIF2; maximum at about 100 ng [2] [%]	inhibition of VI activity (glucose released from sucrose) of a leaf soluble fraction after 30 min at 37 °C with recombinant GmC/VIF2; maximum at about 100 ng [1] [%]	Substance
70			recombinant GmCIF1 (natural protein)
	80	75	recombinant GmC/VIF2 (natural protein)
